In paper PMC9046087, “Structural basis of tethered agonism of the adhesion GPCRs ADGRD1 and ADGRF1” (Nature, 2022):

Tested on: ADGRD1
Experiment: Cell-surface expression by flow cytometry, ADGRD1
Assay type: cell-based, human
Details: ADGRD1 constructs (pD1 Gs part of table), anti-Flag antibody, three independent measurements in duplicate
Protocol: The wild-type ADGRD1 and ADGRF1 and mutants used in functional studies were constructed into a pTT5 vector with a Flag tag at the N terminus for receptor expression measurement. The basal activity of ADGRD1 and ADGRF1 in mediating Gs signalling was measured by a cAMP accumulation assay using a LANCE Ultra cAMP detection kit (PerkinElmer) following the manufacturer’s instruction. In brief, 2 ml HEK293F cells (Invitrogen; cells were routinely tested for mycoplasma contamination) at a density of 1.2 × 10^6 cells per ml were transiently transfected with 2,000 ng plasmid of the wild-type or mutant receptor and cultured at 37 °C for 48 h with 5% CO2 atmosphere in a shaker shaking at 220 rpm. After collection, the cell-surface expression of the receptors was measured by incubating 10 μl cells with 15 μl monoclonal anti-Flag M2-FITC antibody (Sigma; 1:120 diluted in TBS supplemented with 4% BSA and 20% viability staining solution 7-AAD (Invitrogen)) at 4 °C for 20 min. After incubation, 175 μl TBS buffer was added and the fluorescent signal was measured using a flow cytometry reader (Guava easyCyte HT, Millipore).

Row | Molecule | Cell-surface expression (% of WT)
1 | F716^5.36bA (protein, UniProt Q6QNK2 26-874, looked up, variant F716A) Adhesion G-protein coupled …: VYSRSQDHPGFQVLASASHYWPLENVDGIHELQDTTGDIVEGKVNKGIYLKEEKGVTLLYYGRYNSSCISKPEQCGPEGVTFSFFWKTQGEQSRPIPSAYGGQVISNGFKVCSSGGRGSVELYTRDNSMTWEASFSPPGPYWTHVLFTWKSKEGLKVYVNGTLSTSDPSGKVSRDYGESNVNLVIGSEQDQAKCYENGAFDEFIIWERALTPDEIAMYFTAAIGKHALLSSTLPSLFMTSTASPVMPTDAYHPIITNLTEERKTFQSPGVILSYLQNVSLSLPSKSLSEQTALNLTKTFLKAVGEILLLPGWIALSEDSAVVLSLIDTIDTVMGHVSSNLHGSTPQVTVEGSSAMAEFSVAKILPKTVNSSHYRFPAHGQSFIQIPHEAFHRHAWSTVVGLLYHSMHYYLNNIWPAHTKIAEAMHHQDCLLFATSHLISLEVSPPPTLSQNLSGSPLITVHLKHRLTRKQHSEATNSSNRVFVYCAFLDFSSGEGVWSNHGCALTRGNLTYSVCRCTHLTNFAILMQVVPLELARGHQVALSSISYVGCSLSVLCLVATLVTFAVLSSVSTIRNQRYHIHANLSFAVLVAQVLLLISFRLEPGTTPCQVMAVLLHYFFLSAFAWMLVEGLHLYSMVIKVFGSEDSKHRYYYGMGWGFPLLICIISLSFAMDSYGTSNNCWLSLASGAIWAAVAPALFVIVVNIGILIAVTRVISQISADNYKIHGDPSAFKLTAKAVAVLLPILGTSWVFGVLAVNGCAVVFQYMFATLNSLQGLFIFLFHCLLNSEVRAAFKHKTKVWSLTSSSARTSNAKPFHSDLMNGTRPGMASTKLSPWDKSSHSAHRVDLSAV | 98 ± 3 % of WT
2 | H656^3.53bA (protein, UniProt Q6QNK2 26-874, looked up, variant H656A) Adhesion G-protein coupled …: VYSRSQDHPGFQVLASASHYWPLENVDGIHELQDTTGDIVEGKVNKGIYLKEEKGVTLLYYGRYNSSCISKPEQCGPEGVTFSFFWKTQGEQSRPIPSAYGGQVISNGFKVCSSGGRGSVELYTRDNSMTWEASFSPPGPYWTHVLFTWKSKEGLKVYVNGTLSTSDPSGKVSRDYGESNVNLVIGSEQDQAKCYENGAFDEFIIWERALTPDEIAMYFTAAIGKHALLSSTLPSLFMTSTASPVMPTDAYHPIITNLTEERKTFQSPGVILSYLQNVSLSLPSKSLSEQTALNLTKTFLKAVGEILLLPGWIALSEDSAVVLSLIDTIDTVMGHVSSNLHGSTPQVTVEGSSAMAEFSVAKILPKTVNSSHYRFPAHGQSFIQIPHEAFHRHAWSTVVGLLYHSMHYYLNNIWPAHTKIAEAMHHQDCLLFATSHLISLEVSPPPTLSQNLSGSPLITVHLKHRLTRKQHSEATNSSNRVFVYCAFLDFSSGEGVWSNHGCALTRGNLTYSVCRCTHLTNFAILMQVVPLELARGHQVALSSISYVGCSLSVLCLVATLVTFAVLSSVSTIRNQRYHIHANLSFAVLVAQVLLLISFRLEPGTTPCQVMAVLLHYFFLSAFAWMLVEGLALYSMVIKVFGSEDSKHRYYYGMGWGFPLLICIISLSFAMDSYGTSNNCWLSLASGAIWAFVAPALFVIVVNIGILIAVTRVISQISADNYKIHGDPSAFKLTAKAVAVLLPILGTSWVFGVLAVNGCAVVFQYMFATLNSLQGLFIFLFHCLLNSEVRAAFKHKTKVWSLTSSSARTSNAKPFHSDLMNGTRPGMASTKLSPWDKSSHSAHRVDLSAV | 86 ± 10 % of WT
3 | K760^6.40bA (protein, UniProt Q6QNK2 26-874, looked up, variant K760A) Adhesion G-protein coupled …: VYSRSQDHPGFQVLASASHYWPLENVDGIHELQDTTGDIVEGKVNKGIYLKEEKGVTLLYYGRYNSSCISKPEQCGPEGVTFSFFWKTQGEQSRPIPSAYGGQVISNGFKVCSSGGRGSVELYTRDNSMTWEASFSPPGPYWTHVLFTWKSKEGLKVYVNGTLSTSDPSGKVSRDYGESNVNLVIGSEQDQAKCYENGAFDEFIIWERALTPDEIAMYFTAAIGKHALLSSTLPSLFMTSTASPVMPTDAYHPIITNLTEERKTFQSPGVILSYLQNVSLSLPSKSLSEQTALNLTKTFLKAVGEILLLPGWIALSEDSAVVLSLIDTIDTVMGHVSSNLHGSTPQVTVEGSSAMAEFSVAKILPKTVNSSHYRFPAHGQSFIQIPHEAFHRHAWSTVVGLLYHSMHYYLNNIWPAHTKIAEAMHHQDCLLFATSHLISLEVSPPPTLSQNLSGSPLITVHLKHRLTRKQHSEATNSSNRVFVYCAFLDFSSGEGVWSNHGCALTRGNLTYSVCRCTHLTNFAILMQVVPLELARGHQVALSSISYVGCSLSVLCLVATLVTFAVLSSVSTIRNQRYHIHANLSFAVLVAQVLLLISFRLEPGTTPCQVMAVLLHYFFLSAFAWMLVEGLHLYSMVIKVFGSEDSKHRYYYGMGWGFPLLICIISLSFAMDSYGTSNNCWLSLASGAIWAFVAPALFVIVVNIGILIAVTRVISQISADNYKIHGDPSAFKLTAAAVAVLLPILGTSWVFGVLAVNGCAVVFQYMFATLNSLQGLFIFLFHCLLNSEVRAAFKHKTKVWSLTSSSARTSNAKPFHSDLMNGTRPGMASTKLSPWDKSSHSAHRVDLSAV | 126 ± 21 % of WT
4 | H605^2.50bA (protein, UniProt Q6QNK2 26-874, looked up, variant H605A) Adhesion G-protein coupled …: VYSRSQDHPGFQVLASASHYWPLENVDGIHELQDTTGDIVEGKVNKGIYLKEEKGVTLLYYGRYNSSCISKPEQCGPEGVTFSFFWKTQGEQSRPIPSAYGGQVISNGFKVCSSGGRGSVELYTRDNSMTWEASFSPPGPYWTHVLFTWKSKEGLKVYVNGTLSTSDPSGKVSRDYGESNVNLVIGSEQDQAKCYENGAFDEFIIWERALTPDEIAMYFTAAIGKHALLSSTLPSLFMTSTASPVMPTDAYHPIITNLTEERKTFQSPGVILSYLQNVSLSLPSKSLSEQTALNLTKTFLKAVGEILLLPGWIALSEDSAVVLSLIDTIDTVMGHVSSNLHGSTPQVTVEGSSAMAEFSVAKILPKTVNSSHYRFPAHGQSFIQIPHEAFHRHAWSTVVGLLYHSMHYYLNNIWPAHTKIAEAMHHQDCLLFATSHLISLEVSPPPTLSQNLSGSPLITVHLKHRLTRKQHSEATNSSNRVFVYCAFLDFSSGEGVWSNHGCALTRGNLTYSVCRCTHLTNFAILMQVVPLELARGHQVALSSISYVGCSLSVLCLVATLVTFAVLSSVSTIRNQRYHIAANLSFAVLVAQVLLLISFRLEPGTTPCQVMAVLLHYFFLSAFAWMLVEGLHLYSMVIKVFGSEDSKHRYYYGMGWGFPLLICIISLSFAMDSYGTSNNCWLSLASGAIWAFVAPALFVIVVNIGILIAVTRVISQISADNYKIHGDPSAFKLTAKAVAVLLPILGTSWVFGVLAVNGCAVVFQYMFATLNSLQGLFIFLFHCLLNSEVRAAFKHKTKVWSLTSSSARTSNAKPFHSDLMNGTRPGMASTKLSPWDKSSHSAHRVDLSAV | 102 ± 7 % of WT
5 | Q798^7.49bA (protein, UniProt Q6QNK2 26-874, looked up, variant Q798A) Adhesion G-protein coupled …: VYSRSQDHPGFQVLASASHYWPLENVDGIHELQDTTGDIVEGKVNKGIYLKEEKGVTLLYYGRYNSSCISKPEQCGPEGVTFSFFWKTQGEQSRPIPSAYGGQVISNGFKVCSSGGRGSVELYTRDNSMTWEASFSPPGPYWTHVLFTWKSKEGLKVYVNGTLSTSDPSGKVSRDYGESNVNLVIGSEQDQAKCYENGAFDEFIIWERALTPDEIAMYFTAAIGKHALLSSTLPSLFMTSTASPVMPTDAYHPIITNLTEERKTFQSPGVILSYLQNVSLSLPSKSLSEQTALNLTKTFLKAVGEILLLPGWIALSEDSAVVLSLIDTIDTVMGHVSSNLHGSTPQVTVEGSSAMAEFSVAKILPKTVNSSHYRFPAHGQSFIQIPHEAFHRHAWSTVVGLLYHSMHYYLNNIWPAHTKIAEAMHHQDCLLFATSHLISLEVSPPPTLSQNLSGSPLITVHLKHRLTRKQHSEATNSSNRVFVYCAFLDFSSGEGVWSNHGCALTRGNLTYSVCRCTHLTNFAILMQVVPLELARGHQVALSSISYVGCSLSVLCLVATLVTFAVLSSVSTIRNQRYHIHANLSFAVLVAQVLLLISFRLEPGTTPCQVMAVLLHYFFLSAFAWMLVEGLHLYSMVIKVFGSEDSKHRYYYGMGWGFPLLICIISLSFAMDSYGTSNNCWLSLASGAIWAFVAPALFVIVVNIGILIAVTRVISQISADNYKIHGDPSAFKLTAKAVAVLLPILGTSWVFGVLAVNGCAVVFQYMFATLNSLAGLFIFLFHCLLNSEVRAAFKHKTKVWSLTSSSARTSNAKPFHSDLMNGTRPGMASTKLSPWDKSSHSAHRVDLSAV | 96 ± 18 % of WT
6 | W773^6.53bA (protein, UniProt Q6QNK2 26-874, looked up, variant W773A) Adhesion G-protein coupled …: VYSRSQDHPGFQVLASASHYWPLENVDGIHELQDTTGDIVEGKVNKGIYLKEEKGVTLLYYGRYNSSCISKPEQCGPEGVTFSFFWKTQGEQSRPIPSAYGGQVISNGFKVCSSGGRGSVELYTRDNSMTWEASFSPPGPYWTHVLFTWKSKEGLKVYVNGTLSTSDPSGKVSRDYGESNVNLVIGSEQDQAKCYENGAFDEFIIWERALTPDEIAMYFTAAIGKHALLSSTLPSLFMTSTASPVMPTDAYHPIITNLTEERKTFQSPGVILSYLQNVSLSLPSKSLSEQTALNLTKTFLKAVGEILLLPGWIALSEDSAVVLSLIDTIDTVMGHVSSNLHGSTPQVTVEGSSAMAEFSVAKILPKTVNSSHYRFPAHGQSFIQIPHEAFHRHAWSTVVGLLYHSMHYYLNNIWPAHTKIAEAMHHQDCLLFATSHLISLEVSPPPTLSQNLSGSPLITVHLKHRLTRKQHSEATNSSNRVFVYCAFLDFSSGEGVWSNHGCALTRGNLTYSVCRCTHLTNFAILMQVVPLELARGHQVALSSISYVGCSLSVLCLVATLVTFAVLSSVSTIRNQRYHIHANLSFAVLVAQVLLLISFRLEPGTTPCQVMAVLLHYFFLSAFAWMLVEGLHLYSMVIKVFGSEDSKHRYYYGMGWGFPLLICIISLSFAMDSYGTSNNCWLSLASGAIWAFVAPALFVIVVNIGILIAVTRVISQISADNYKIHGDPSAFKLTAKAVAVLLPILGTSAVFGVLAVNGCAVVFQYMFATLNSLQGLFIFLFHCLLNSEVRAAFKHKTKVWSLTSSSARTSNAKPFHSDLMNGTRPGMASTKLSPWDKSSHSAHRVDLSAV | 69 ± 2 % of WT
